Legend:
biotin-PCSK9-his [1] = molecular target: biotin-PCSK9-his (UniProt Q8NBP7); experiment: competitive ELISA, one antibody coated, biotin-PCSK9-his plus 50-fold competitor; competitor: h001-4
biotin-PCSK9-his [2] = molecular target: biotin-PCSK9-his (UniProt Q8NBP7); experiment: competitive ELISA, one antibody coated, biotin-PCSK9-his plus 50-fold competitor; competitor: 21B12

“21B12 (U.S. Pat. No. 8,030,457B2) (antibody)” showed an IR (%) (biotin-PCSK9-his [1]) of 3.86% and an IR (%) (biotin-PCSK9-his [2]) of 97.8%.

Source: patent publication US20190016825A1
